Source: patent publication CN115772221A (BOAOXIN BIOTECHNOLOGY NANJING CO LTD, dated 2023)

Target: T1, 重组人CD47-his蛋白 (ACRO biosystems, cat#CD7-H5227, MW 15.6 kDa) (human, UniProt Q08722 19-139, biotin-labelled in the ELISAs (examples 3.1, 4.1, 4.2); unlabelled in Biacore)
T1 construct: Bought protein; also called 人CD47蛋白; 人CD47-生物素; not shown: His tag
Assay: SPR (Biacore T200), antibody captured by goat anti-mouse IgG, CD47-his in solution

T1 sequence (Q08722 19-139 limits assumed): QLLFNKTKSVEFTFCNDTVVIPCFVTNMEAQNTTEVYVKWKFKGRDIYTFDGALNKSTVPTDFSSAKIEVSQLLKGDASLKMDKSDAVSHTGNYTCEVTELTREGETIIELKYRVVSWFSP

B1: 小鼠抗CD47单克隆抗体1D2 (antibody, V domains shown)
VH: EVQLQQSGPELVKPGASVRISCKTSGYKFTDYNIHWVKQSHGKSLEYIGYIYPYNISSAYNQKFKSKATVTVDNSSSTSYMELRSLTSEDSAVYYCARGGWRAMDYWGQGTSVTVSS
VL: AVLMTQSPLSLPVSLGDQASLSCRSSQNIVHTNGYTYLAWYLQRPGQSPKLLIYKVSNRFSGVPDRFSGSGSGTDFTLRISRVEAEDLGVYYCFQGSHVPWTFGGGTKLEIK
notes: Tested as a mouse monoclonal antibody purified from a hybridoma; 1D2 is the only named antibody of the invention; also called 本发明的单克隆抗体1D2; 本发明的抗体1D2
- binding result: binds
